Results taken from patent US20190135895A1 (published 2019).

Tests used:
[1] = target: truncated monomeric His-tagged human FcRn (human) (UniProt P55899); assay: SPR (BIAcore 3000), hFcRn injected over immobilized HSA-GST variant, pH 6.0, 1:1 Langmuir model
[2] = target: T1, WT HSA-GST (human, UniProt P08515 1-218 = GST); assay: ELISA, mFcRn captured on rabbit IgG, pH 6.0
T1 construct: Secreted from HEK293E cells; also called WT-GST; WT HSA fusion

Chain of truncated monomeric His-tagged human FcRn (human) (P55899 24-297 limits assumed, chain 1 of 2): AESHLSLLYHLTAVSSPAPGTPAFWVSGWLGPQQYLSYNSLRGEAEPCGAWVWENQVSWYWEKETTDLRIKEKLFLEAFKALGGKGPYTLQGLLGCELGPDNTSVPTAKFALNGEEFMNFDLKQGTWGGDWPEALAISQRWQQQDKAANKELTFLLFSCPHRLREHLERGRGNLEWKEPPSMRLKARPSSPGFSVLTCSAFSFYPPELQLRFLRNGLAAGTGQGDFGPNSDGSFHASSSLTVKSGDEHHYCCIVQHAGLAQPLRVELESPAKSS
Chain of truncated monomeric His-tagged human FcRn (human) (chain, as listed by the source limits assumed, chain 2 of 2): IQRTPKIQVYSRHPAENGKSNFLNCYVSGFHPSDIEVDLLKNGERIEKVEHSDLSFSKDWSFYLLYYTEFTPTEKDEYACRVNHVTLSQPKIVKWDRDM

| Molecule | Kd [1] [nM] | binding result [2] |
| --- | --- | --- |
| HSA E505Q-GST (from UniProt P08515 1-218) | 23.1 |  |
| truncated monomeric His-tagged mouse FcRn (receptor, extracellular domain; Made in a Baculovirus system; also called mFcRn; soluble mFcRn; not shown: His tag) chain 1: SETRPPLMYHLTAVSNPSTGLPSFWATGWLGPQQYLTYNSLRQEADPCGAWMWENQVSWYWEKETTDLKSKEQLFLEALKTLEKILNGTYTLQGLLGCELASDNSSVPTAVFALNGEEFMKFNPRIGNWTGEWPETEIVANLWMKQPDAARKESEFLLNSCPERLLGHLERGRRNLEWKEPPSMRLKARPGNSGSSVLTCAAFSFYPPELKFRFLRNGLASGSGNCSTGPNGDGSFHAWSLLEVKRGDEHHYQCQVEHEGLAQPLTVDLDSSARSS chain 2: IQKTPQIQVYSRHPPENGKPNILNCYVTQFHPPHIEIQMLKNGKKIPKVEMSDMSFSKDWSFYILAHTEFTPTETDTYACRVKHASMAEPKTVYWDRDM |  | no binding |
